Reference: patent US20250011448A1 (STAIDSON BIOPHARMA, published 2025)
Residue numbers refer to the chain shown, from its start.

Key:
[1] = target: T1, human TNFR2 extracellular domain with C-terminal 10×His tag (human, UniProt P20333 23-257); experiment: BLI (Octet RED96), antibody captured on AHC biosensor, His-tagged TNFR2 in solution, 1:1 model
T1 construct: also called huTNFR2-His; His-tag-huTNFR2
T1 sequence: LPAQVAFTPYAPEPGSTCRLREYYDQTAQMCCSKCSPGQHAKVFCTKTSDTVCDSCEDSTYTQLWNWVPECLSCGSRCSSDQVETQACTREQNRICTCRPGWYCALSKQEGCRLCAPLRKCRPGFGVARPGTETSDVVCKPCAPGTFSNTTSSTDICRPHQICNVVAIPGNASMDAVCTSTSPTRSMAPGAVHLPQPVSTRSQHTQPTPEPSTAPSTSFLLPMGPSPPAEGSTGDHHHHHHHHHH
Protocol: (§1) The following kinetic assay was performed using anti-human IgG Fc capture (AHC) biosensors (ForteBio) in kinetics buffer (PBS, 0.1% Tween-20 and 1% bovine serum albumin): (a) antibody (2 μg/mL) for 300 sec, (b) baseline for 120 sec, (c) association with His-tag-huTNFR2 (2.5, 0.5 and 0 μg/mL) and His-tag-cynoTNFR2 (2.5, 0.5 and 0 μg/mL) for 420 sec and (d) dissociation for 1200 sec. Data fitting and analysis was performed with Octet data analysis software 8.0 (ForteBio) using a 1:1 binding model after Savitzky-Golay filtering.

[2] = target: T2, cynomolgus monkey TNFR2 extracellular domain with C-terminal 10×His tag (cynomolgus monkey, UniProt P20333 23-257 (human entry)); experiment: as above
T2 construct: also called cynoTNFR2-His; His-tag-cynoTNFR2
T2 chain: T1 sequence with S16G, S36P, P117Q, N164H, E210A, S216G, M223V
Protocol: as §1

[3] = target: T3, cynomolgus monkey TNFR2 extracellular domain as used in the blocking ELISA (cynomolgus monkey, UniProt P20333 23-257 (human entry)); experiment: blocking ELISA: antibody pre-mixed with cynoTNFR2, binding of cynoTNFR2 to coated cynomolgus monkey TNFα read out
T3 construct: also called cynoTNFR2
T3 chain: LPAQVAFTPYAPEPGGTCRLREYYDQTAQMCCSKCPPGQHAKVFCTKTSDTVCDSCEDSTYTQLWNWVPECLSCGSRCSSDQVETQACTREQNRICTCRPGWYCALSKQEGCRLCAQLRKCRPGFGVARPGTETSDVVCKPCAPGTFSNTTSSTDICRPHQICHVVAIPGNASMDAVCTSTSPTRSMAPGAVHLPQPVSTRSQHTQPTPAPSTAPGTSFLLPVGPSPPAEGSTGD
Protocol: 96-well round bottom ELISA plates were coated overnight at 4° C. with 50 μL/well of 0.5 μg/mL human TNFα recombinant protein (R&D system, Cat #210-TA-100) in coating buffer. After removing the coating solution, blocking buffer was added into the plates followed by incubation at room temperature for 1 hour in order to block unspecific binding. During the blocking period, hybridoma antibodies samples were mixed with 0.5 μg/mL TNFR2-huFc at a 1:1 volume ratio and incubated at room temperature for another 1.5 hours. Then 50 μL/well of antigen-antibody mix solution was transferred into TNFα coated wells and incubated at room temperature for 1.5 hours. Plates were then washed 5 times with wash buffer. Then, 50 μL/well of goats anti-human IgG Fc-AP (Southern Biotech, cat #2014-04) at 1:2000 dilution in assay buffer was added, incubated at room temperature for 1 hour, washed 4 times with wash buffer and developed for 30 minutes with 50 μL/well of pNPP substrate. Plates were analyzed with a Synergy HT (Bio-TEK) at 405 nm. Parental hybridomas with the desired human and cynoTNFR2 binding as well as the ability to block human TNFR2 and human TNFα binding were prioritized for subcloning and further characterization. Subcloning was carried out with limited dilution and visual inspection was performed to ensure clonality. Hybridoma subclones were screened with the same binding and blocking assays and selected positive hits were cryopreserved.
TNFR2 blocking by purified recombinant chimeric antibodies: Human TNFR2 blocking ELISA was performed on purified recombinant chimeric antibodies following the same protocol as described above, except that 50 μL/well of serial dilution of purified antibodies (starting at 10 μg/mL, 1:3 dilution) in assay buffer was added into the reaction. The blocking IC₅₀ value represents the antibody concentration that inhibited 50% of huTNFR2 or cynoTNFR2 binding to coated human TNFα or cynomolgus monkey TNFα.

B1: 85G8.4 chimeric anti-TNFR2 antibody (antibody, V domains shown)
VH: EVQLQQSGPELVKPGASVKISCKTSGYTFTDFNMDWVKQSHGKSLEWIGYINPNNGDAAYNQKFKSKATLTVDKSSNTAYMELHSLTSDDSAVYYCARWGWAFAYWGQGTLVTVSA
VL: DIVMTQSHKIMSTSVGDRVSITCKASQDVKTAVAWYQQKPGQSPKLLIYATSYRYTGVPDRFTGSGSGTDFTFTISTVQAEDLAVYYCQQHYSIPYTFGGGTKLEIK
notes: Chimeric: mouse variable domains with human constant regions, made as recombinant IgG1
[1]
  Kd: 1.95 nM
  koff: 0.000251 s⁻¹
  kon: 129000 M⁻¹ s⁻¹
[2]
  Kd: 1.3 nM
  koff: 0.000534 s⁻¹
  kon: 412000 M⁻¹ s⁻¹
[3]
  IC50: 1.02 nM

B2: 15H10 chimeric anti-TNFR2 antibody (antibody, V domains shown)
VH: DVQLQESGPGLVTPSQSLSLTCSVTGYSITSGYYWNWIRQFPGNKLEWMGYITYDGNNNYNPSLKSRFSITRDTSKNQFFLKLNSVTSEDTATYYCARGDYGDSAMDYWGQGTSVTVSS
VL: EIVLTQSPAITAASLGQKVTITCSASSGVNYMHWYQQKSGTSPKPWIYEISKLASGVPARFSGSGSGTSYSLTISSMEAEDAAIYYCQQWNYPLITFGAGTKVELK
notes: as for B1
[1]
  Kd: 0.453 nM
  koff: 2.58e-05 s⁻¹
  kon: 57100 M⁻¹ s⁻¹
[2]
  Kd: 1.42 nM
  koff: 0.000368 s⁻¹
  kon: 259000 M⁻¹ s⁻¹
[3]
  IC50: 1.01 nM

B3: 11C1 chimeric anti-TNFR2 antibody (antibody, V domains shown)
VH: B2 VH with Q5R, F41I, N61D, S66N, F68I, K82T
VL: B2 VL with G28S, N30S, T73I, V103L
notes: as for B1
[1]
  Kd: 2.46 nM
  koff: 0.000258 s⁻¹
  kon: 105000 M⁻¹ s⁻¹
[3]
  IC50: 1.09 nM

B4: 29G3 chimeric anti-TNFR2 antibody (antibody, V domains shown)
VH: EVMLVESGGASVKPGGSLKLSCAASGFTFSNFAMSWVRQTPEKRLEWVATIRSGDNYSYYSDNVKGRFTISRDNARNTLYLQMSSLRSKDTSIYYCARNWDKVFDYWGQGTTLTVSS
VL: DIVLTQSPASLAVSLGQRATISCRASESVDSYGYSFMHWYQQKPGQPPKLLIYRASNLKSGIPARFSGSGSRTDFTLTINPVEADDVATYYCQQSNEDHTFGGGTKLEIK
notes: as for B1
[1]
  Kd: 4.53 nM
  koff: 0.00114 s⁻¹
  kon: 251000 M⁻¹ s⁻¹
[2]
  Kd: 1.59 nM
  koff: 0.002 s⁻¹
  kon: 1.26e+06 M⁻¹ s⁻¹
[3]
  IC50: 0.927 nM
